Tests used:
[1] = biological target: T1, membrane-bound human IL-6R on TF-1 cells (human, UniProt P08887 20-468); experiment: cell-based or functional assay
T1 sequence: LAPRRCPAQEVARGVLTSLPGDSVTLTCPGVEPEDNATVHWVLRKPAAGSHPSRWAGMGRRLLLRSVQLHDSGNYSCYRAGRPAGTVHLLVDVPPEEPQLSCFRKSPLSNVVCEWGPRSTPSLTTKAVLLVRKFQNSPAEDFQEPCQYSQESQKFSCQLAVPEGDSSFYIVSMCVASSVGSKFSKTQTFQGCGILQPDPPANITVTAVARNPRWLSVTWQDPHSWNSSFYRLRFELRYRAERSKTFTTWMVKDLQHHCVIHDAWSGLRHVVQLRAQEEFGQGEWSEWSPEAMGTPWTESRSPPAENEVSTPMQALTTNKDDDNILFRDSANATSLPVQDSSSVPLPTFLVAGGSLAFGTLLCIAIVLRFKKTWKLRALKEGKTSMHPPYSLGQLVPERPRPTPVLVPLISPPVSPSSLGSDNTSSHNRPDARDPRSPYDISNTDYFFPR

[2] = biological target: T2, cynomolgus monkey soluble IL-6R (from cynomolgus monkey serum) (cynomolgus monkey, UniProt P08887 20-365 (human entry)); experiment: ratio of gp130 ELISA IC50s on human and cynomolgus sIL-6R
T2 construct: Natural soluble IL-6R present in diluted normal cynomolgus monkey serum; also called cyno IL6R; cynomolgous sIL-6R
T2 chain: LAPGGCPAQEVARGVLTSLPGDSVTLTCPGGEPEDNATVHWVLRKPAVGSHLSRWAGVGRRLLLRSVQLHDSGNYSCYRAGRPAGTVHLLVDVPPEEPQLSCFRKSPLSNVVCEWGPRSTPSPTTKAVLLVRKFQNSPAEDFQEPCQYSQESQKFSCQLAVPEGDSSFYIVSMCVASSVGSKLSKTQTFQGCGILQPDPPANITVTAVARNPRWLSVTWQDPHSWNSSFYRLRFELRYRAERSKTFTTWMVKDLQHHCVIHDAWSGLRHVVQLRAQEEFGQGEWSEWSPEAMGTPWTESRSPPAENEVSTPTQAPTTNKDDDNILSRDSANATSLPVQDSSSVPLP
Experimental: (§1) The standard anti-cynomolgus monkey IL-6R gp130 ELISA assay detailed under ‘Potency, neutralisation and inhibition’ above was performed to assay the ICVDs in parallel for their ability to neutralise sIL6R in cynomolgous monkey serum and recombinant purified human sIL6R. Briefly, Maxisorp 96-well plates were coated overnight with 50 μl/well 1 μg/ml gp130 then blocked. ICVDs were serially diluted and mixed 1:1 with 200 ng/ml recombinant human IL-6, then 1:1 with either 20 ng/ml recombinant human sIL-6R or a 5-fold dilution of cynomolgus monkey serum and incubated for 1 hour to allow binding before adding to the gp130-coated plates. Bound cynomolgus monkey IL-6R was detected with 50 μl/well either 0.25 μg/ml (for human IL-6R) or 0.5 μg/ml (for monkey serum) BAF227 and then 50 μl/well 1/1000 Extravidin-HRP and the level of neutralisation by the ICVD of IL-6R binding to IL-6/gp130 was determined

[3] = biological target: T3, recombinant soluble human IL-6R (human, UniProt P08887 20-365); experiment: gp130 ELISA (competition), parallel human arm: 10 ng/mL human IL-6R, 50 ng/mL human IL-6
T3 construct: also called sIL-6R; shIL-6R
T3 sequence: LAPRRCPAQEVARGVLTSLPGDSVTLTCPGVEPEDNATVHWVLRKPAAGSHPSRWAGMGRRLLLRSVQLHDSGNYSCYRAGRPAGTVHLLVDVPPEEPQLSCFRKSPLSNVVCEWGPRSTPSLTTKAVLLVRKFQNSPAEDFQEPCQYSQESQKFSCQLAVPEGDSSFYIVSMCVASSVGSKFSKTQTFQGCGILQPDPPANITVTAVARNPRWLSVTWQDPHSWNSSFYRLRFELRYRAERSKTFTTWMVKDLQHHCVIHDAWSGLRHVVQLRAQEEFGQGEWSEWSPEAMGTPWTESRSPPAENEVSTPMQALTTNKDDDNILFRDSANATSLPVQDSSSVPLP
Experimental: as §1

[4] = biological target: T2, cynomolgus monkey soluble IL-6R (from …); experiment: anti-cynomolgus IL-6R gp130 ELISA (competition): 10x diluted cynomolgus serum, 50 ng/mL human IL-6, coated human gp130
Experimental: as §1

[5] = biological target: T3, recombinant soluble human IL-6R; experiment: gp130 ELISA (competition): inhibition of human sIL-6R/IL-6 complex binding to coated gp130; 20 ng/mL IL6R, 100 ng/mL IL6
Experimental: Briefly, Maxisorp 96-well plates were coated overnight with 50 μl/well 0.5 μg/ml gp130 then blocked. ICVDs were serially diluted and mixed 1:1 with 100 ng/ml recombinant human IL-6 then 1:1 with 40 ng/ml recombinant human sIL-6R, and incubated for 1 hour to allow binding before adding to the gp130-coated plates. Bound IL-6R was detected with 50 μl/well 0.250 μg/ml BAF227 and then 50 μl/well 1/1000 diluted Extravidin-HRP and the level of neutralisation by the ICVD of IL-6R binding to IL-6/gp130 was determined.
Dose response curves were obtained (dose response curves of particular ICVDs illustrated in FIG. 1). […] This was confirmed with curve-fitting software (Graphpad Prism), which fitted 4 parameter curves to the data and calculated the IC50s (Table 4.1, below).

[6] = biological target: T3, recombinant soluble human IL-6R; experiment: standard gp130 ELISA (competition); column 'Potency'
[7] = biological target: T1, membrane-bound human IL-6R on TF-1 cells; experiment: cell-based or functional assay; remark: listed apart in the source
[8] = biological target: T3, recombinant soluble human IL-6R; experiment: standard gp130 ELISA (competition); 10 ng/mL IL-6R, 50 ng/mL IL-6; column 'Potency'
Experimental: Mutant 5G9 sequences were produced and tested for their potency in the standard gp130 ELISA. The standard gp130 ELISA has a final assay concentration of 10 ng/mL IL-6R and 50 ng/mL IL-6.

[9] = biological target: T3, recombinant soluble human IL-6R; experiment: cell-based or functional assay
[10] = biological target: T3, recombinant soluble human IL-6R; experiment: standard gp130 ELISA (competition), Experiment 2; 10 ng/mL IL-6R, 50 ng/mL IL-6
Experimental: The inhibitory potency and efficacy (maximal inhibition) of the E. coli-produced 5G9 derivatives were confirmed in vitro in the gp130 ELISA, TF-1 cell and M1 cell functional assays measuring responses mediated via human IL-6R. The gp130 assays follow the standard protocol with a final assay concentration of 10 ng/mL IL-6R and 50 ng/mL IL-6.

B1: 4D3 (VHH)
VHH: EVQLVESGGGSVQAGESLTLSCVASISTFSQNAMGWFRQAAGKRRESVARISSSGNVGYTDAVKGRFTMSRDNAKKTVYLQMNSLKPEDTAVYYCNAYSMSGELAAPWGQGTQVTVSS
notes: Llama ICVD from library 46-3, produced in E. coli; also called VIL-4D3; not shown: C-terminal Flag and 6xHis tags from vector pMEK222
- IC50 of inhibition of IL-6-induced TF-1 cell proliferation [1]: 26 nM
- Ratio Cyno IC50/human IC50 (title: human IC50 divided by cynomolgous IC50) [2]: 1.9
- IC50 [3]: 0.691 nM
- IC50 [4]: 0.372 nM
- IC50 [5]: 0.66 nM

B2: ID-3V (VHH)
VHH: EVQLVESGGGLVQAGGSTRLTCLASGSISSINVIGWYRQAPGKQRELVAMIGRGEGANYGDFAKGRFTISRDNSKNTVYLQMNSLKPEDTAVYYCYADYEDHDSPFNGSWGQGTQVTVSS
notes: Mutant of 7F6; also called 7F6 + R102H; not shown: C-terminal Flag- and His-tags of E. coli constructs
- IC50 [6]: 0.16 nM

B3: ID-6V (VHH)
VHH: EVQLVESGGGLVQAGGSTRLTCLASGSISSINVIGWYRQAPGKQRELVAMIGRGEGANYGDFAKGRFTISRDNSKNTVYLQMNSLKPEDTAVYYCYADYEDRDSPHNGSWGQGTQVTVSS
notes: Mutant of 7F6; also called 7F6 + F106H; not shown: C-terminal Flag- and His-tags of E. coli constructs
- IC50 [6]: 0.22 nM

B4: ID-40V (VHH)
VHH: EVQLVESGGGLVQAGGSTRLTCLASGSISSINVIGWYRQAPGKQRELVAMIGRGEGANYGDFAKGRFTISRDNSKNTVYLQMNSLKPEDTAVYYCYADYEDHDSPHNGSWGQGTQVTVSS
notes: Mutant of 7F6; also called 7F6 + R102H, F106H; not shown: C-terminal Flag- and His-tags of E. coli constructs
- IC50 [6]: 0.21 nM

B5: ID-47V (VHH)
VHH: EVQLVESGGGLVQAGGSTRLTCLASGSISSINVIGWYRQAPGKQRELVAMIGRGEGANYGDFAKGRFTISRDNSKNTVYLQMNSLKPEDTAVYYCYADYEDRDSPINGSWGQGTQVTVSS
notes: Mutant of 7F6; also called 7F6 + F106I; not shown: C-terminal Flag- and His-tags of E. coli constructs
- IC50 [6]: 0.27 nM

B6: ID-50V (VHH)
VHH: EVQLVESGGGLVQAGGSTRLTCLASGSISSINVIGWYRQAPGKQRELVAMIGRGEGANYGDFAKGRFTISRDNSKNTVYLQMNSLKPEDTAVYYCYADYEDRDSPVNGSWGQGTQVTVSS
notes: Mutant of 7F6; also called 7F6 + F106V; not shown: C-terminal Flag- and His-tags of E. coli constructs
- IC50 [6]: 0.24 nM

B7: ID-49V (VHH)
VHH: EVQLVESGGGLVQAGGSTRLTCLASGSISSINVIGWYRQAPGKQRELVAMIGRGEGANYGDFAKGRFTISRDNSKNTVYLQMNSLKPEDTAVYYCYADYEDRDSPTNGSWGQGTQVTVSS
notes: Mutant of 7F6; also called 7F6 + F106T; not shown: C-terminal Flag- and His-tags of E. coli constructs
- IC50 [6]: 0.31 nM

B8: 3C12 (VHH)
VHH: EVQLVESGGGLAQLGGSLRLSCVASGNIFSSNTAGWFRQAPGKQREWVAGISIGGMPAYADSVKGRFTISRDNAKNTVYLQMNSLKPEDTAVYYCATGGTEYDYWGQGTQVTVSS
notes: Llama ICVD from library 37-3, produced in E. coli; also called VIL-3C12; not shown: C-terminal Flag and 6xHis tags from vector pMEK222
- IC50 of inhibition of IL-6-induced TF-1 cell proliferation [1]: 44.6 nM
- Ratio Cyno IC50/human IC50 (title: human IC50 divided by cynomolgous IC50) [2]: 0.9
- IC50 [3]: 3.53 nM
- IC50 [4]: 4.14 nM
- IC50 [5]: 1.89 nM

B9: 5G9 (VHH)
VHH: EVQLVESGGGLVQAGGSTRLTCKASGSIFNINSINVMAWYRQAPGKQRELVAIIGKGGGTNYADFVKGRFTISRDAAKNTVNLQMNSLKPEDTAVYYCYADYEDRDSPFNASWGQGTQVTVSS
notes: also called VIL-5G9; 'Wild type' 5G9; not shown: C-terminal Flag and 6xHis tags from vector pMEK222
- IC50 of inhibition of IL-6-induced TF-1 cell proliferation [1]: 0.9 nM
- Potency in the TF-1 assay [7]: 0.23 not printed (nM in the filing's other TF-1 tables)
- Ratio Cyno IC50/human IC50 (title: human IC50 divided by cynomolgous IC50) [2]: 0.2
- IC50 [8]: 0.09 nM
- IC50 [3]: 0.148 nM
- IC50 [4]: 0.804 nM
- IC50 [5]: 0.16 nM

B10: ID-59V (VHH)
VHH: EVQLVESGGGLVQAGGSTRLTCKASGSIFNINSINVMAWYRQAPGKQRELVAIIGKGGGTNDADFVKGRFTISRDAAKNTVNLQMNSLKPEDTAVYYCYADYEDRDSPFNASWGQGTQVTVSS
notes: Mutant of 5G9; also called 5G9 + Y62D; not shown: C-terminal Flag- and His-tags of E. coli constructs
- IC50 [8]: 0.11 nM

B11: ID-55V (VHH)
VHH: EVQLVESGGGLVQAGGSTRLTCHASGSIFNINSINVMAWYRQAPGKQRELVAIIGKGGGTNYADFVKGRFTISRDAAKNTVNLQMNSLKPEDTAVYYCYADYEDRDSPFNASWGQGTQVTVSS
notes: Mutant of 5G9; also called 5G9 + K23H; not shown: C-terminal Flag- and His-tags of E. coli constructs
- IC50 [8]: 0.11 nM

B12: ID-56V (VHH)
VHH: EVQLVESGGGLVQAGGSTRLTCKASGSISNINSINVMAWYRQAPGKQRELVAIIGKGGGTNYADFVKGRFTISRDAAKNTVNLQMNSLKPEDTAVYYCYADYEDRDSPFNASWGQGTQVTVSS
notes: Mutant of 5G9; also called 5G9 + F29S; not shown: C-terminal Flag- and His-tags of E. coli constructs
- IC50 [8]: 0.07 nM

B13: ID-53V (VHH)
VHH: EVQLVESGGGLVQAGGSTRLTCKASGSIFNINSINVMAWYRQAPGKQRELVAIIGKGGGTNYADFVKGRFTISRDAAKNTVNLQMNSLKPEDTAVYYCYADYEDRDSPHNASWGQGTQVTVSS
notes: Mutant of 5G9; also called 5G9 + F109H; not shown: C-terminal Flag- and His-tags of E. coli constructs
- Potency in the TF-1 assay [7]: 17.5 not printed (nM in the filing's other TF-1 tables)
- IC50 [8]: 0.3 nM

B14: ID-122V (VHH)
VHH: EVQLVESGGGLVQAGGSTRLTCKASGSISNINSINVMAWYRQAPGKGRELVAIIGKGGGTNYADFVKGRFTISRDAAKNTVNLQMNSLRPEDTAVYYCYADYEDHDSPHNASWGQGTQVTVSS
notes: E. coli-produced trans-selective 5G9 derivative; also called 5G9 + F29S, Q47G, K89R, R105H, F109H; not shown: C-terminal FLAG-6xHis
- M1 cellular assay EC50 (20 ng/ml IL-6R, 100 ng/ml IL-6) [9]: 3.96 nM
- EC50 [10]: 0.489 nM

B15: ID-54V (VHH)
VHH: EVQLVESGGGLVQAGGSTRLTCKASGSIFNINSINVMAWYRQAPGKQRELVAIIGKGGGTNYADFVKGRFTISRDAAKNTVNLQMNSLKPEDTAVYYCYADYEDHDSPFNASWGQGTQVTVSS
notes: Mutant of 5G9; also called 5G9 + R105H; not shown: C-terminal Flag- and His-tags of E. coli constructs
- Potency in the TF-1 assay [7]: 0.31 not printed (nM in the filing's other TF-1 tables)
- IC50 [8]: 0.15 nM

B16: ID-52V (VHH)
VHH: EVQLVESGGGLVQAGGSTRLTCKASGSIFNINSINVMAWYRQAPGKQRELVAIIGKGGGTNYADFVKGRFTISRDAAKNTVNLQMNSLKPEDTAVYYCYADYEDHDSPHNASWGQGTQVTVSS
notes: Mutant of 5G9; also called 5G9 + F109H, R105H; not shown: C-terminal Flag- and His-tags of E. coli constructs
- IC50 [8]: 0.24 nM
